{"source": "patent US20260000781A1", "about": "“FC CONJUGATES INCLUDING AN INHIBITOR OF CD73 AND USES THEREOF” (Cidara Therapeutics, Inc., priority 2022, published 2026)", "key": {"[1]": {"target": "T1, human CD73 expressed on cells (human) (UniProt P21589)", "T1 sequence (looked up)": "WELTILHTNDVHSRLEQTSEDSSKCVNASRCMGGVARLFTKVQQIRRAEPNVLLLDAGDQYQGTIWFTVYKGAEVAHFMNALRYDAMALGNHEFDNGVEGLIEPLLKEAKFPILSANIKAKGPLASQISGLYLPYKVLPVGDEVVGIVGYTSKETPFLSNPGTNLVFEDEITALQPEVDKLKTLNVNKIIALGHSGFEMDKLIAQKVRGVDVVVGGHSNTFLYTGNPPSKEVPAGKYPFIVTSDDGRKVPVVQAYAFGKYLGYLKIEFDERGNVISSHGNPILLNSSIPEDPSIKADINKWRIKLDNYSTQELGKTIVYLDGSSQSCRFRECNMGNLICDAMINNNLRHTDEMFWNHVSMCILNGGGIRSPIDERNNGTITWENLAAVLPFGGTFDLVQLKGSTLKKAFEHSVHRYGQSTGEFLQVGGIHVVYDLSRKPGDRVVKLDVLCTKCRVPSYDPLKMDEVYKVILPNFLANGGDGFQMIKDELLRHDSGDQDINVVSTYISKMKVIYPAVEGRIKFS", "assay": "flow cytometry, MDA-MB-231 cells, anti-human Fc detection, gMFI; with 100 nM AB680"}, "[2]": {"target": "T1, human CD73 expressed on cells (human)", "assay": "flow cytometry, MDA-MB-231 cells, anti-human Fc detection, gMFI; no AB680 (column headed No AMP)"}, "[3]": {"target": "T1, human CD73 expressed on cells (human)", "assay": "flow cytometry, MDA-MB-231 cells, anti-human Fc detection, gMFI; with 1 nM AB680"}, "[4]": {"target": "T1, human CD73 expressed on cells (human)", "assay": "flow cytometry, MDA-MB-231 cells, PE anti-human Fc detection, % labelled cells"}, "[5]": {"target": "T1, human CD73 expressed on cells (human)", "assay": "flow cytometry, MDA-MB-231 cells, anti-human Fc detection, gMFI; with 10 nM AB680"}, "[6]": {"target": "T1, human CD73 expressed on cells (human)", "assay": "flow cytometry, MDA-MB-231 cells, anti-human Fc detection, gMFI; with 100 nM AB680", "remark": "listed apart in the source"}, "[7]": {"target": "T1, human CD73 expressed on cells (human)", "assay": "cell-based or functional assay"}, "[8]": {"target": "T1, human CD73 expressed on cells (human)", "assay": "cell-based or functional assay", "remark": "listed apart in the source"}, "[9]": {"target": "T1, human CD73 expressed on cells (human)", "assay": "flow cytometry, MDA-MB-231 cells, anti-human Fc detection, gMFI; with 10 µM AMP"}, "[10]": {"target": "T1, human CD73 expressed on cells (human)", "assay": "flow cytometry, MDA-MB-231 cells, anti-human Fc detection, gMFI; with 1,000 µM AMP"}, "[11]": {"target": "T1, human CD73 expressed on cells (human)", "assay": "flow cytometry, MDA-MB-231 cells, anti-human Fc detection, gMFI; with 10 nM AB680", "remark": "listed apart in the source"}, "[12]": {"target": "T1, human CD73 expressed on cells (human)", "assay": "flow cytometry, MDA-MB-231 cells, anti-human Fc detection, gMFI; with 1 nM AB680", "remark": "listed apart in the source"}, "[13]": {"target": "T1, human CD73 expressed on cells (human)", "assay": "flow cytometry, MDA-MB-231 cells, anti-human Fc detection, gMFI"}, "[14]": {"target": "T1, human CD73 expressed on cells (human)", "assay": "flow cytometry, MDA-MB-231 cells, anti-human Fc detection, gMFI; with 1,000 µM AMP", "remark": "listed apart in the source"}, "[15]": {"target": "T1, human CD73 expressed on cells (human)", "assay": "flow cytometry, MDA-MB-231 cells, anti-human Fc detection, gMFI; 0 µM AMP"}, "[16]": {"target": "T1, human CD73 expressed on cells (human)", "assay": "cell-based or functional assay", "remark": "listed apart in the source"}, "[17]": {"target": "T2, recombinant human CD73 enzyme (human) (UniProt P21589)", "T2 sequence (looked up)": "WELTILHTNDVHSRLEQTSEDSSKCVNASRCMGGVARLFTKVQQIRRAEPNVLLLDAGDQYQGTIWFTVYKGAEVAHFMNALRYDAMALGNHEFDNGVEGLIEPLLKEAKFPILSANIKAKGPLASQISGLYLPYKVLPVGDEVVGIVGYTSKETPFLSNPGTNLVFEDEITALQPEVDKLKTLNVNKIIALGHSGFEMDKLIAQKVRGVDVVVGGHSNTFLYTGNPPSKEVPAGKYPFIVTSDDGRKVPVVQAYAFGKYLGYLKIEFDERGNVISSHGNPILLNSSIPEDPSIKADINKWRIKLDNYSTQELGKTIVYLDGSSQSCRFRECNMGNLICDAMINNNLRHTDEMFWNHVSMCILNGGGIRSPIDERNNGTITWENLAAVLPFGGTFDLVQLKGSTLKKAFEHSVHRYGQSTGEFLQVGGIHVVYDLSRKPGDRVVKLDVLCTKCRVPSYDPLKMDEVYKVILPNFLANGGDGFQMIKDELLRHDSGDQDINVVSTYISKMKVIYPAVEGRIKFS", "assay": "cell-based or functional assay"}, "[18]": {"target": "T1, human CD73 expressed on cells (human)", "assay": "flow cytometry, MDA-MB-231 cells, anti-human Fc detection, gMFI; no AMP"}, "[19]": {"target": "T1, human CD73 expressed on cells (human)", "assay": "flow cytometry, MDA-MB-231 cells, anti-human Fc detection, gMFI; with 100 µM AMP"}, "[20]": {"target": "T1, human CD73 expressed on cells (human)", "assay": "flow cytometry, MDA-MB-231 cells, anti-human Fc detection, gMFI; 0 nM AB680"}, "[21]": {"target": "T1, human CD73 expressed on cells (human)", "assay": "flow cytometry, MDA-MB-231 cells, anti-human Fc detection, gMFI; with 10 µM AMP", "remark": "listed apart in the source"}, "[22]": {"target": "T1, human CD73 expressed on cells (human)", "assay": "flow cytometry, MDA-MB-231 cells, anti-human Fc detection, gMFI; with 100 µM AMP", "remark": "listed apart in the source"}}, "note": "Like-named read-outs stand apart in the source and are kept apart here.", "data": [{"binder": "Mupadolimab (antibody, INN chains, looked up, V domains shown) VH: QVQLVQSGAEVEKPGASVKVSCKASGYTFTSYWITWVRQAPGQGLEWMGDIYPGSGNTNYNEKFKTRVTITADKSTSTAYMELSSLRSEDTAVYYCAKEGGLTTEDYALDYWGQGTLVTVSS VL: EIVLTQSPATLSLSPGERATLSCRASKNVSTSGYSYMHWYQQKPGQAPRLLIYLASNLESGIPPRFSGSGYGTDFTLTINNIESEDAAYYFCQHSRELPFTFGQGTKVEIK", "values": [{"measurement": "IC50", "setting": "[1]", "value": 8.48, "unit": "nM"}, {"measurement": "IC50", "setting": "[2]", "value": 0.09, "unit": "nM"}, {"measurement": "IC50", "setting": "[3]", "value": 0.88, "unit": "nM"}, {"measurement": "EC50", "setting": "[4]", "value": 1.25, "unit": "nM"}, {"measurement": "IC50", "setting": "[5]", "value": 1.54, "unit": "nM"}, {"measurement": "IC50", "setting": "[6]", "value": 4.19, "unit": "nM"}, {"measurement": "% CD73 receptor internalization, MDA-MB-231", "setting": "[7]", "value": "> 60", "unit": "%"}, {"measurement": "Cell internalization EC50 (nM), Fab-ZAP saporin assay, MDA-MB-231", "setting": "[8]", "value": 0.06, "unit": "nM"}, {"measurement": "IC50", "setting": "[9]", "value": 0.048, "unit": "nM"}, {"measurement": "IC50", "setting": "[10]", "value": 0.14, "unit": "nM"}, {"measurement": "IC50", "setting": "[11]", "value": 2.59, "unit": "nM"}, {"measurement": "IC50", "setting": "[12]", "value": 1.39, "unit": "nM"}, {"measurement": "fold reduction of binding at high AMP concentration", "setting": "[13]", "value": 2, "unit": "fold"}, {"measurement": "IC50", "setting": "[14]", "value": 0.2, "unit": "nM"}, {"measurement": "IC50", "setting": "[15]", "value": 0.1, "unit": "nM"}, {"measurement": "% CD73 receptor internalization, MDA-MB-231", "setting": "[16]", "value": "> 70", "unit": "%"}, {"measurement": "CD73 inhibition, human PBMCs, 3 h IC50 [nM]", "setting": "[16]", "value": 2.85, "unit": "nM"}, {"measurement": "CD73 inhibition, human PBMCs, 3 h median IC50 [nM]", "setting": "[16]", "value": 9.27, "unit": "nM"}, {"measurement": "CD73 inhibition, human PBMCs, 24 h IC50 [nM]", "setting": "[16]", "value": 44.2, "unit": "nM"}, {"measurement": "CD73 inhibition, human PBMCs, 24 h median IC50 [nM]", "setting": "[16]", "value": 29.9, "unit": "nM"}, {"measurement": "Cell internalization EC50 (nM), Fab-ZAP saporin assay, MDA-MB-231", "setting": "[16]", "value": 0.055, "unit": "nM"}, {"measurement": "Cell-based CD73 inhibition IC50 (nM), MDA-MB-231 cells", "setting": "[16]", "value": 3.82, "unit": "nM"}, {"measurement": "PBMC activation (CD25+), 30 µM AMP EC50 [nM]", "setting": "[16]", "value": 576, "unit": "nM"}, {"measurement": "PBMC activation, CD4+CD25+ EC50 [nM] (median, n = 3)", "setting": "[16]", "value": 28, "unit": "nM"}, {"measurement": "PBMC activation, CD8+CD25+ EC50 [nM]", "setting": "[16]", "value": 932, "unit": "nM"}, {"measurement": "PBMC activation, CD8+CD25+ EC50 [nM] (median, n = 3)", "setting": "[16]", "value": 84, "unit": "nM"}, {"measurement": "PBMC activation, CD8+Granzyme B+ EC50 [nM] (median, n = 3)", "setting": "[16]", "value": 83, "unit": "nM"}, {"measurement": "PBMC activation, CD8+granzyme B+ EC50 [nM]", "setting": "[16]", "value": 63.1, "unit": "nM"}, {"measurement": "cell-based CD73 enzyme inhibition IC50 (MDA-MB-231 cells)", "setting": "[16]", "value": 1.16, "unit": "nM"}, {"measurement": "inhibition of adenosine production (AMP conversion by CellTiter-Glo), human PBMCs, EC50 [nM]", "setting": "[16]", "value": 10, "unit": "nM"}, {"measurement": "Cell free CD73 inhibition IC50", "setting": "[17]", "value": "> 100", "unit": "nM"}, {"measurement": "IC50", "setting": "[18]", "value": 0.025, "unit": "nM"}, {"measurement": "IC50", "setting": "[19]", "value": 0.16, "unit": "nM"}, {"measurement": "IC50", "setting": "[20]", "value": 0.1, "unit": "nM"}, {"measurement": "IC50", "setting": "[21]", "value": 0.12, "unit": "nM"}, {"measurement": "IC50", "setting": "[22]", "value": 0.12, "unit": "nM"}]}]}
